Reference: publication PMC6167709

What was measured:
[1] = SEC; ConSOSL.UFO.664 from concentrated 293T.17 supernatant, in PBS, Enrich SEC 650 column; oligomeric state of the gp140
[2] = target: ConSOSL.UFO.664 gp140 (HIV-1 (group M consensus, ConS)); test: as above

Substance: ConSOSL.UFO.664 gp140
- share of the trimer peak in the SEC profile [1]: trimer peak ∼54%
- stoichiometry N [2]: 3
